# Assay results taken from article PMC12700550, “DLL4^+ neutrophils promote Notch1-mediated endothelial PANoptosis to exacerbate acute lung injury in sepsis” (The Journal of Clinical Investigation, 2025).
# Values joined by “and” are separate entries in the source; they are usually repeats but may differ in a detail not shown here. Identical values can stand only once.
# B1: eCIRP: extracellular cold-inducible RNA-binding protein; recombinant murine, produced in our laboratory (protein, UniProt P60824 1-172, looked up)
# Cold-inducible RNA-binding …: MASDEGKLFVGGLSFDTNEQALEQVFSKYGQISEVVVVKDRETQRSRGFGFVTFENIDDAKDAMMAMNGKSVDGRQIRVDQAGKSSDNRSRGYRGGSAGGRGFFRGGRSRGRGFSRGGGDRGYGGGRFESRSGGYGGSRDYYASRSQGGSYGYRSSGGSYRDSYDSYATHNE
# How the values were obtained:
# [1] = test system: DLL4 expression on TLR4^–/– BMDNs; assay: Frequency of DLL4^+ neutrophils, TLR4^–/– mouse BMDNs, flow cytometry; assay type: cell-based; details: 12 h
# Procedure: Male 8-week-old C57BL/6 mice were purchased from Charles River Laboratories. TLR4^–/– mice were obtained from Kevin Tracey (Feinstein Institutes for Medical Research). Mice were housed at approximately 23°C with a 12-hour light/12-hour dark cycle and given standard laboratory food and water ad libitum. All experiments were performed following the NIH guidelines for experimental animals. The animal protocol was approved by the Feinstein Institutes’ Institutional Animal Care and Use Committee. Animals were randomly assigned to the sham, vehicle, or adoptive transfer groups.
# Mice were anesthetized by 2% isoflurane inhalation, and the femora and tibiae were dissected. […] The purity of the sorted neutrophils was assessed by staining of the cells with APC-Ly6G antibody (clone 1A8, BioLegend) using a BD LSRFortessa flow cytometer (BD Biosciences).
# In the time course experiments, BMDNs (1 × 10^6) were stimulated with eCIRP (1 μg/mL) for 2, 4, 6, and 12 hours. […] Single-cell suspensions were then stained with APC-conjugated anti–mouse Ly6G (clone 1A8, catalog 127614, BioLegend) and PE-conjugated anti-DLL4 (clone HMD4-1, catalog 130807, BioLegend), and analyzed by flow cytometry (BD LSRFortessa, BD Biosciences) to detect DLL4^+ neutrophils (Ly6G^+DLL4^+). […] The isolated lung cells were counted using a microscope (Eclipse TS100, Nikon). […]
# [2] = test system: DLL3; assay: DLL3 mRNA in eCIRP-treated BMDNs, qPCR; assay type: cell-based, mouse; details: for DLL3 mRNA: DLL3-CIRP
# Procedure: mRNA was extracted from lung tissues with TRIzol reagent (Invitrogen, Thermo Fisher Scientific). An equal amount ([…]) of mRNA was reverse-transcribed into cDNA using the reverse transcriptase enzyme (Invitrogen, Thermo Fisher Scientific). qPCR was performed from the diluted cDNA templates with forward and reverse primers (Supplemental Table 4) and SYBR Green PCR Master Mix (Applied Biosystems, Thermo Fisher Scientific) using an Applied Biosystems 7300 real-time PCR machine. Mouse β-actin served as an internal control gene for normalization. Relative expression of mRNA was represented as fold change in comparison with the sham group.
# BMDNs (1 × 10^6) were treated with eCIRP (1 μg/mL) for 12 hours, and DLL1, DLL3, and DLL4 were analyzed by qPCR.
molecule,measurement,setting,value
B1,frequency of DLL4^+ neutrophils (Figure 1E),"[1]; TLR4^–/– (KO) BMDNs, 1 μg/mL eCIRP, individual replicates",1.63% and 1.97% and 2.11% and 0.98% and 0.25% and 1.21%
same,eCIRP-mediated induction of DLL4^+ neutrophils,"[1]; TLR4^–/– neutrophils, 1 μg/mL",significantly abrogated in TLR4^–/– neutrophils
same,effect on DLL3 expression,"[2]; BMDNs, eCIRP 1 μg/mL, 12 h",no significant induction of DLL1 or DLL3
same,DLL3 mRNA,[2]; replicate 1,0.2832
same,DLL3 mRNA,[2]; replicate 2,1.673
same,DLL3 mRNA,[2]; replicate 3,0.009923
same,DLL3 mRNA,[2]; replicate 4,0.01002
same,DLL3 mRNA,[2]; replicate 5,0.02772
same,DLL3 mRNA,[2]; replicate 6,0.1715
